Results from patent US7393448B2, “Method of binding a compound to a sensor surface” (Applied NanoSystems B.V., priority 2002, dated 2008).

Experiments:
[1] = Immobilization of electroactive molecules on HYDPt-1-modified electrodes (cyclic voltammetry); format: physicochemical; conditions: Q10 bound to GCE covered with HYDPt-1
Procedure: Electrochemical experiments. Voltammetry experiments were done at 20° C. in three-electrode arrangement, with a calomel reference electrode, platinum foil counter electrode and GE, GCE or TMFE as working electrodes. Eco Chemie AUTO-LAB PGSTAT 30 system was used as the potentiostat with an IBM PC and Eco Chemie software. In order to prepare the TMFE, a silver wire or silver disk electrode precleaned in concentrated perchloric acid was touched to a drop of mercury and cathodically polarized in 0.1 M KOH to obtain a shining and uniform layer of mercury, ca. 1 mm thick. The GE and GCE were polished on Buehler polishing papers and paste, and the GE was cleaned in concentrated nitric acid. The electrodes were coated with the self-assembled hydrophobin upon contact with the surface of solutions containing 2 μg of hydrophobin per 1 ml of 10 mM Tris-HCl buffer. The time of the hydrophobin self-assembly and the conditions of Q0, Q10 and diazobenzene adsorption on hydrophobin-coated electrodes are given below.
Hydrophobin as a “molecular glue” for immobilizing molecules on the electrode surface. In the present work, we checked the ability of HYDPt-1 to bind through adsorption to different types of electroactive molecules to electrode surfaces. […]
Curve 1 was recorded after adsorption of the diazobenzene for the same lapse of time, but on the bare GCE. […]

[2] = Immobilization of cholesterol oxidase on hydrophobin-coated glassy carbon electrode, current response to cholesterol; format: biochemical; conditions: GCE, phosphate buffer pH 7 (25 mM), cholesterol added
Description: Immobilization of cholesterol oxidase on a glassy carbon electrode. […] The coated electrode was submerged in a cholesterol oxidase-containing solution (0.5 U/ml) for two hours and rinsed with water.
To overcome the poor solubility of cholesterol in water, the cholesterol was solubilized in isopropanol with Triton in phosphate buffer (Ropers, M-H. et al., 2001, Phys. Chem. Chem. Phys. 3:240-245). Upon addition of cholesterol, the immobilized cholesterol oxidase catalyzed the reaction and led to formation of hydrogen peroxide. The peroxide produced a small detectable current over the electrode which correlated to the concentration of cholesterol added.

[3] = at 50 μg ml^−1; cited from earlier work
[4] = cited from earlier work

COC1=C(OC)C(=O)C(C/C=C(\C)CC/C=C(\C)CC/C=C(\C)CC/C=C(\C)CC/C=C(\C)CC/C=C(\C)CC/C=C(\C)CC/C=C(\C)CC/C=C(\C)CCC=C(C)C)=C(C)C1=O [Q10, ubiquinone 50]
stability of ubiquinone reduction and oxidation signals [1]: remained unchanged for several weeks

cholesterol oxidase
enzyme activity upon immobilization on the hydrophobin layer [2]: remaining active

B1: SC3: best characterized class I hydrophobin, of Schizophyllum commune (protein, UniProt P16933 25-136, looked up)
Class I hydrophobin SC3: GGHPGTTTPPVTTTVTVTTPPSTTTIAAGGTCTTGSLSCCNQVQSASSSPVTALLGLLGIVLSDLNVLVGISCSPLTVIGVGGSGCSAQTVCCENTQFNGLINIGCTPINIL
maximal lowering of the water surface tension (from 72) [3]: 24 mJ m^−2
water contact angle, hydrophilic side of SC3 membrane ([4]; hydrophilic side): 36 °
water contact angle, hydrophobic side of SC3 membrane ([4]; hydrophobic side): 110 °
